Experimental data: patent US6977175 (MIT, dated 2005)

T1: LIN-15B protein (C. elegans, UniProt Q27395 1-1440, limits assumed)
T1 construct: Tested in a yeast two-hybrid assay; The fusion partners and construct limits are not described
T1 sequence (looked up): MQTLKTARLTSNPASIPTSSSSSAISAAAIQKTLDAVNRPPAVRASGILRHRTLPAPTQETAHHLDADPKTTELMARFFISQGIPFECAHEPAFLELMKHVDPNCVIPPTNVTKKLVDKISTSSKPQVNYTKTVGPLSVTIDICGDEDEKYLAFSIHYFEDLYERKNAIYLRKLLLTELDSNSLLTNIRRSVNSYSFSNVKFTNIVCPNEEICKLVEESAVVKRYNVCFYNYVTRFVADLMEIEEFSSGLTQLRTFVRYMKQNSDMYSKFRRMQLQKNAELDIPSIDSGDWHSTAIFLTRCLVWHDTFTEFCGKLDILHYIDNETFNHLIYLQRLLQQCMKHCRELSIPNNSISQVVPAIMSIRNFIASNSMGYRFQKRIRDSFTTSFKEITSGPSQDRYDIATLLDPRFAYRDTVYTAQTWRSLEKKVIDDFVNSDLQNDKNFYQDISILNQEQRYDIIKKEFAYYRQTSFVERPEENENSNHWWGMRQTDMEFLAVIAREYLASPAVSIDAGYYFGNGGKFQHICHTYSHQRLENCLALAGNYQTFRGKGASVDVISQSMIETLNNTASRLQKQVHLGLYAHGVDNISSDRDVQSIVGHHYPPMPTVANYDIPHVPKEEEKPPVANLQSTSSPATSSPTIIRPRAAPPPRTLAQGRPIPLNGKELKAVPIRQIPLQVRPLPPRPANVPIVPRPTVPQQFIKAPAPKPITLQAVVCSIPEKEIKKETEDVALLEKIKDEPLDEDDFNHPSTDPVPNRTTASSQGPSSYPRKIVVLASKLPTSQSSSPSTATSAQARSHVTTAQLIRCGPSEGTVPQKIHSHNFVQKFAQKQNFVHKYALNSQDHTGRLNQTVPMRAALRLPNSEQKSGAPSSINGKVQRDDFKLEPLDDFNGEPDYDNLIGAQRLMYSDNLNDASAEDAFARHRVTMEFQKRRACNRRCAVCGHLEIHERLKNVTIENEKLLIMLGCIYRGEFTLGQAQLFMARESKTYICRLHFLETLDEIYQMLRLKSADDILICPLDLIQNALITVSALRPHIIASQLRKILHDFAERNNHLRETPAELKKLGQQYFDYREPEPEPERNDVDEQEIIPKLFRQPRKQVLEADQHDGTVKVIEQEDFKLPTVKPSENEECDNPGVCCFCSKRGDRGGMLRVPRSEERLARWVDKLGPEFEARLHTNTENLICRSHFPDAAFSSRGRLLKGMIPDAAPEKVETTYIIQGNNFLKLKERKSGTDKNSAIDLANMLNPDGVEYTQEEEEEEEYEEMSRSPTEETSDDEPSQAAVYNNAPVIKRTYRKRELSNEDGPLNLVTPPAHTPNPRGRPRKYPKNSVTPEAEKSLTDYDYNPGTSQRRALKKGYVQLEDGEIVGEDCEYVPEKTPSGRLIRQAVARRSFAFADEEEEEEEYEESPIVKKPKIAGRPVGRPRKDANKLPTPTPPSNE

B1: LIN-15A protein (other, C. elegans, UniProt Q27365 1-719, looked up)
chain: MLAPAAPAKDVVSADEKEEIIAKRKFRMKNVDAMRMSSLANDRMAFNKKCNALAMKFVKSAGIGTDALQLTCFQELVRHFNPIAAVVVGVKREPNSNVQAEKKTIPKVKTIQTPTQSMESVRLLQEKKASATEEQSAESASIMKHFANTIPNSTPTQSVKDVLTAAASKGQFKSSAEIFSHFPSEPSPSKPRATREGSQPSDYTYCTYLTPCILCEKALLMRESIAMTDNEAVKVLMAAVMSGHFRMATAEKAIRHERLRMCYDHVDFVYEMMCDAFEAKTESEINEMPPDRLMRGHDIYRALKRVGDLHKGKVTSNTPLYSFKNSIKSYYRNHVPRMVNGSLSKPSPKPFSELVALLQSVPPSTNLNELLNHNLSLSDADKQELIQLINGKDNRFTSRRRKIEDILDNKFAAAAAKAYRDHSEDAPSEPYIPNQSEMQNTVERRKRKLHSPEQDDAGSSSISWNAKKTKTPIDYVHLATRVLEGHSIADEALLHKSKVSYARNAFGEKPSSPTPPSAPLKFCVVNGKKYLRFENGTGPPKVVVQGNVVLRTNTLKDALTTAPRAQNQPSTSTDSSSSSEMEGIRQSFGAPQKEEEEEELVPTLLQNKPTHVESSSPVEKKPPTKTNVEKPAVRLGRMLTTAFGSMSYRTRKSVENKTDLLNQPTSASPRRMIKVVRNRNPHLAKQVAAAPSEPKHIPPTHMEKKPEELLMDPKPEPIF
notes: Tested in a yeast two-hybrid assay; The fusion partners and construct limits are not described
B2: LIN-9 protein (other, C. elegans, UniProt P30630 1-644, looked up)
chain: MSSAVRSPRKKAASDTSDPDRTSSPYSLRETSKVPSRYRNEELYLSPSRSIKRTGSPKKSPAKRLNGGRDSPSVNSLTRNSSLTMLAKAALDYESSSCALEYIFQPKEERRPPRRALALSPPPAPSNDLLAKDLEMIEMHQNLVAGLDDLDNPANMTNEAVEHRDTQSFFNMFSTDQERSAMMKQFKTYKNQTSEDVSTFMRANIKKLYNLLRYKKARQWVMCEFFYSAIDEQIFKEENEFATIIRESFPNLKNWNLTRIEWRSIRKLLGKPRRCSKVFFEEERMYLEEKRMKIRSVYEGSYLNDPSIDLKDLPAKLPRPMVVGNRVFARIRNPYDGIYSGIIDAVIPKGFRIIFDKPDIPPTLVSDTEILLDGKLDLLSIAYFIEQANSKLPSGVRPFVAAVRDSSHPHLVRDVLVSRKIERSGGPLMGPNDERLNGKNAEMVGNFPLKFLVNLVKLTKLIDIKKGLIRQLNELNADAEIQNMTSDKYSKAFQEKYAKTIIDLEHVNQNIDINMNGIQDHHMYFSSNDISTSNMKPEAVRQMCSQQAGRFVEHCNQGLNVENVHALTLIQSLTAVLLQVRTMGTQKISAVDLQSLGDAISEIRTAIHPRNVAFFQDYVEVHMKQFHTIMLESGALAGTVSNRK
notes: as for B1

Legend:
LIN-15B protein = molecular target: T1, LIN-15B protein; test: yeast two-hybrid
LIN-15A protein = molecular target: B1; test: yeast two-hybrid

| Binder | binding result (LIN-15B protein) | binding result (LIN-15A protein) |
| --- | --- | --- |
| B1 | no binding | – |
| B2 | no binding | no binding |
